# Laboratory results as given in the RNAGym collection of RNA variant scans (doi:10.1093/nar/gkz1192).
# B1: CPEB3 Ribozyme (parent)
# chain: UAACAGGGGGCCACAGCAGAAGCGUUCACGUCGCAGCCCCUGUCAGAUUCUGGUGAAUCUGCGAAUUCUGCUGUAUAUCUC
# Variants of: B1
# Experiment: self-cleavage, relative activity (ratio to wild type); higher = more cleavage; in vitro, sequencing
# Summary of the method: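 Relative activity was defined as the cleaved/total read fraction for a variant divided by the same fraction for the unmutated ribozyme. CPEB3 self-cleaving ribozyme libraries were made by rounds of error-prone PCR, barcoded, and transcribed in vitro with T7 RNA polymerase for 5 hours at 37°C, and cleavage ran through transcription plus a 15 min DNase I step before EDTA. Illumina sequencing of template-switched reverse transcripts gave the reads, and DNA sequencing mapped the barcodes. Averages come from three batches, using variants with at least 5 reads.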
row,Variant,self-cleavage
1,U26C U41G,0.31
2,U26C U41A,0.28
3,U26C U41C,0.45
4,U25G A57G,0.16
5,U25G A35U,0.39
6,U25G A35G,0.9
7,U26A A45C,0.21
8,U26A A45U,0.42
9,U26A A45G,0.69
10,U26A G53U,1.04
11,U26A G53A,1
12,U26C G46A,0.17
13,U26C C68U,0.5
14,U26C C68A,0.28
15,U26A U78A,0.67
16,U26A U78C,0.82
17,U26A U78G,0.5
18,U25C U60A,0.24
19,U25C U60C,0.23
20,U25C U60G,0.13
21,U26A C62G,0.2
22,U26A C62A,0.25
23,U26A C62U,0.21
24,U26A U60A,0.52

row,Variant,self-cleavage
1,U26A U60C,0.34
2,U26C C27U,0.27
3,U26C U69A,0.26
4,U26C U69G,0.17
5,U26C U69C,0.27
6,U25C U76A,0.33
7,U25C U76C,0.3
8,U25C U76G,0.45
9,U26A G33A,0.17
10,U26A G33U,0.1
11,U26C C39U,0.61
12,U26C C39A,0.33
13,U25G U72A,0.21
14,U25G U72C,0.26
15,U25G C27U,0.39
16,U25G C34U,0.15
17,U26A A57U,0.62
18,U26A A57G,0.78
19,U26C,0.5
20,U26A,0.89
21,U26A C68U,0.79
22,U26A C68A,0.31
23,U26A G42A,0.29
24,U25G A28U,0.31

row,Variant,self-cleavage
1,U25G A28G,0.37
2,U26A C38U,0.51
3,U26A C38A,0.27
4,U26A G61A,0.73
5,U26A G61C,0.27
6,U26C U66C,0.26
7,U26C U66G,0.21
8,U26C U66A,0.23
9,U25G U51C,0.4
10,U25G U51A,0.3
11,U25G C59U,0.21
12,U26A G30C,0.24
13,U26A G30U,0.19
14,U26A C40A,0.25
15,U26A C40U,0.59
16,U26A C40G,0.17
17,U26C U60G,0.3
18,U26C U60A,0.39
19,U26C U60C,0.27
20,U25G G70C,0.33
21,U25G U26C,0.33
22,U26A G63U,0.87
23,U26A G63A,0.74
24,U26C C29U,0.29

row,Variant,self-cleavage
1,U26C C29A,0.18
2,U26C C29G,0.35
3,U25G A77U,0.25
4,U25G U74G,0.37
5,U25G U74C,0.52
6,U26C G55A,0.43
7,U26C G55C,0.33
8,U26A U51A,0.81
9,U26A U51G,0.8
10,U26A U51C,0.84
11,U26A G55U,0.77
12,U25C U80C,0.35
13,U25C U80A,0.28
14,U26A A47G,0.84
15,U26A A47U,0.58
16,U25G U67G,0.19
17,U25G U67A,0.22
18,U26C A45G,0.32
19,U26C A45C,0.36
20,U26C A45U,0.26
21,U26C G73A,0.99
22,U26C G73U,1
23,U26A U69G,0.48
24,U26A U69C,0.4

row,Variant,self-cleavage
1,U26A U69A,0.46
2,U26C G70U,0.26
3,U26C G70C,0.12
4,U26C G70A,0.59
5,U25G C50U,0.14
6,U25G U76C,0.52
7,U25G U80C,0.37
8,U25G G73A,0.51
9,U26A U49C,0.3
10,U26A U49A,0.49
11,U26A U49G,0.41
12,U25G C37U,0.09
13,U25G U31C,0.19
14,U25G U31A,0.23
15,U25C U69A,0.22
16,U25C U69G,0.21
17,U25C U69C,0.22
18,U26C U48G,0.47
19,U26C U48C,0.33
20,U26C U48A,0.23
21,U25G U54C,0.43
22,U25G U54A,0.49
23,U26C C37G,0.71
24,U26C C37U,0.32

row,Variant,self-cleavage
1,U26C C37A,0.13
2,U26C U31A,0.27
3,U26C U31C,0.35
4,U26C U31G,0.32
5,U25G A56G,0.4
6,U26C U54A,0.5
7,U26C U54G,0.27
8,U26C U54C,0.44
9,U26A U66C,0.34
10,U26A U66A,0.38
11,U26A U66G,0.42
12,U26A U74A,1.31
13,U26A U74C,1.16
14,U26C U43C,0.77
15,U26C U43G,0.7
16,U26C U43A,0.26
17,U26C A28U,0.29
18,U26C A28G,0.31
19,U26C A28C,0.29
20,U26A A28U,0.61
21,U26A A28G,0.38
22,U25G C32A,0.26
23,U26A G52U,1.08
24,U26A G52A,1.06

row,Variant,self-cleavage
1,U26A G52C,1
2,U26C G42U,0.25
3,U26C G42C,0.15
4,U26C G42A,0.31
5,U26C C79A,0.61
6,U26C C79G,0.59
7,U26C C79U,0.55
8,U25G A47U,0.32
9,U26C A56U,0.28
10,U26C A56C,0.31
11,U26C A56G,0.38
12,U25G A65U,0.07
13,U25G A65G,0.26
14,U26A C44U,0.46
15,U26A C44G,0.94
16,U25C U72A,0.22
17,U25C U72C,0.28
18,U25C U72G,0.26
19,U26A A64U,0.27
20,U26A A64C,0.5
21,U26A A64G,0.61
22,U26C G61C,0.25
23,U26C G61U,0.35
24,U26C C62A,0.38

row,Variant,self-cleavage
1,U26C C62G,0.17
2,U26C C62U,0.16
3,U26A U43A,0.39
4,U26A U43C,0.29
5,U26A U43G,0.33
6,U26C A75C,0.38
7,U26C A75U,0.56
8,U26C A75G,0.38
9,U26C A57C,0.28
10,U26C A57G,0.36
11,U26C A57U,0.31
12,U26A C32A,0.16
13,U26A C32G,0.13
14,U25G A75G,0.29
15,U26C G52A,0.76
16,U26C G52C,0.27
17,U26C C40U,0.34
18,U26C C40A,0.26
19,U26A A75G,0.69
20,U26A A75U,0.9
21,U26C A35C,0.32
22,U26C A35U,0.24
23,U26C A35G,1.07
24,U25G A45G,0.29

row,Variant,self-cleavage
1,U26C U51C,0.44
2,U26C U51G,0.46
3,U26C U51A,0.43
4,U26A C50A,0.76
5,U26A C50U,0.47
6,U26C U67A,0.24
7,U26C U67C,0.22
8,U26C U67G,0.21
9,U26A U41G,0.33
10,U26A U41C,0.67
11,U26A U41A,0.25
12,U26C A77C,0.45
13,U26C A77U,0.53
14,U26C A77G,0.46
15,U26C G36U,0.25
16,U26C G36C,0.15
17,U26C G36A,0.13
18,U26A C79A,1.07
19,U26A C79U,1.05
20,U26A C81G,1.1
21,U26A U67A,0.38
22,U26A U67C,0.29
23,U25G A64U,0.23
24,U25G A64G,0.24

row,Variant,self-cleavage
1,U26C C32G,0.11
2,U26C C32A,0.22
3,U26C C32U,0.16
4,U26A C27G,0.12
5,U26A C27A,0.31
6,U26A C71U,0.24
7,U26A C71A,0.2
8,U26C C71U,0.24
9,U26C C71A,0.1
10,U26C C44U,0.26
11,U26C C44A,0.09
12,U26C G33U,0.24
13,U26C G33A,0.24
14,U26C G33C,0.13
15,U26A G70C,0.2
16,U26A G70A,0.4
17,U25G C39U,0.3
18,U26A U58C,0.39
19,U26A U58G,0.17
20,U26A U58A,0.23
21,U26C U58A,0.15
22,U26C U58C,0.29
23,U26C U58G,0.28
24,U25G U49C,0.45

row,Variant,self-cleavage
1,U25G U49A,0.26
2,U25C U67G,0.11
3,U25C U67A,0.25
4,U25C U67C,0.2
5,U25G C71G,0.16
6,U25C U66A,0.35
7,U25C U66G,0.69
8,U25C U66C,0.27
9,U25G U78A,0.12
10,U25G U78C,0.15
11,U26C G30A,0.27
12,U26C G30U,0.16
13,U26A C37G,0.62
14,U26A C37U,0.5
15,U26A U54G,0.53
16,U26A U54A,0.82
17,U26A U54C,0.84
18,U25C U78C,0.24
19,U25C U78A,0.25
20,U25C U78G,0.22
21,U26C C81U,0.5
22,U26C C81A,0.63
23,U26A A35G,1.29
24,U26A A35U,0.38

row,Variant,self-cleavage
1,U26A A35C,0.65
2,U25C U74C,0.35
3,U25C U74A,0.42
4,U25G U69C,0.24
5,U25G U69A,0.15
6,U26A C34U,0.29
7,U26A C34G,0.41
8,U26A A77U,1.03
9,U26A A77G,0.91
10,U25G U58A,0.14
11,U25G U58C,0.2
12,U26C A65C,0.28
13,U26C A65G,0.3
14,U26C A65U,0.3
15,U25G G52A,0.15
16,U26C G53A,0.51
17,U26A U48C,0.47
18,U26A U48G,0.37
19,U26A U48A,0.35
20,U25C U58C,0.26
21,U25C U58G,0.33
22,U26A U31C,0.69
23,U26A U31A,0.34
24,U26A C39U,0.56

row,Variant,self-cleavage
1,U25G U41C,0.4
2,U25G U41A,0.19
3,U25G U41G,0.43
4,U26A G73A,0.96
5,U26C A47G,0.48
6,U26C A47U,0.36
7,U26C A47C,0.08
8,U26A U80C,1.02
9,U26A U80G,1.06
10,U26A U80A,0.96
11,U26A U72C,1.13
12,U26A U72G,0.83
13,U26A U72A,0.75
14,U26A C29G,0.3
15,U25G U60C,0.24
16,U25G U60A,0.19
17,U26C C50G,0.22
18,U26C C50A,0.44
19,U26C C50U,0.27
20,U26C U72C,0.65
21,U26C U72A,0.36
22,U26C G63A,0.35
23,U26C G63C,0.41
24,U26C G63U,0.61

row,Variant,self-cleavage
1,U26C U49A,0.3
2,U26C U49C,0.34
3,U25G U43A,0.58
4,U25G U43C,0.34
5,U25G,0.31
6,U26A A65U,0.35
7,U26A A65G,0.38
8,U26C C38G,0.09
9,U26C C38A,0.19
10,U26C C38U,0.4
11,U25G U48C,0.36
12,U26A A56U,0.4
13,U26A A56C,0.49
14,U26A A56G,0.68
15,U26A G36U,0.39
16,U26C A64U,0.26
17,U26C A64G,0.36
18,U26C A64C,0.31
19,U26C C59A,0.17
20,U25G U66C,0.23
21,U26A U76A,1.02
22,U26A U76C,0.74
